Experiment [1] deals with native BPL2 (Bryopsis plumosa mannose-binding lectin 2) (Bryopsis plumosa).
The target in experiment [2] is rD4BPL2 (recombinant Bryopsis plumosa lectin 2, tetrameric tandem repeat construct) (Bryopsis plumosa).

B1: bovine serum fetuin (natural protein)
chain: IPLDPVAGYKEPACDDPDTEQAALAAVDYINKHLPRGYKHTLNQIDSVKVWPRRPTGEVYDIEIDTLETTCHVLDPTPLANCSVRQQTQHAVEGDCDIHVLKQDGQFSVLFTKCDSSPDSAEDVRKLCPDCPLLAPLNDSRVVHAVEVALATFNAESNGSYLQLVEISRAQFVPLPVSVSVEFAVAATDCIAKEVVDPTKCNLLAEKQYGFCKGSVIQKALGGEDVRVTCTLFQTQPVIPQPQPDGAEAEAPSAVPDAAGPTPSAAGPPVASVVVGPSVVAVPLPLHRAHYDLRHTFSGVASVESSSGEAFHVGKTPIVGQPSIPGGPVRLCPGRIRYFKI
With B1, the minimum concentration of fetuin that inhibits the agglutination of a 4% horse erythrocyte suspension by 4 HU lectin in experiment [1] is 195 µg/mL; in experiment [2], 12.2 µg/mL.
